Measured values taken from US20100183625A1, “Treatment of Mucositis with Kallikrein Inhibitors” (Dyax Corp., priority 2009, published 2010).

Target: T1, pKal (Homo sapiens, UniProt P03952)
T1 construct: two disulfide linked polypeptides; a heavy chain of approximately 52 kDa and a catalytic domain of approximately 34 kDa; host or cells: human plasma
Assay: Fab fragments (small scale) tested for inhibition against human pKal in an in vitro protease cleavage assay
Format: biochemical
Conditions: Table 9
Description: By DNA sequencing, we recovered 61 of the possible 80 antibodies (Table 9). These antibodies were produced as Fab fragments in small scale (˜20 μg) and tested for inhibition against human pKal in an in vitro protease cleavage assay using Pro-Phe-Arg-aminomethylcoumarin as the synthetic peptide substrate. […] Five antibodies were then expressed in 293T cells and purified by protein A sepharose chromatography. The antibodies were analyzed by SDS-PAGE to determine which of the inhibitory mutants are not cleaved by the host cell protease(s) (data not shown).

T1 sequence (P03952 391-638 limits assumed): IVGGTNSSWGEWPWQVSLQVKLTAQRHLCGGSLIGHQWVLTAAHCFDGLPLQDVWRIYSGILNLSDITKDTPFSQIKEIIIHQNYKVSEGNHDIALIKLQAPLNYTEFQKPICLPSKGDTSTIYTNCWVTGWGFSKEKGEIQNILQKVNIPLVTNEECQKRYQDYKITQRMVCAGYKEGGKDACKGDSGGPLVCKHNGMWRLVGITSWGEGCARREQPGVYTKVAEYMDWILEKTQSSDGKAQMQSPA
T1 sequence (P03952 20-390 partner limits assumed): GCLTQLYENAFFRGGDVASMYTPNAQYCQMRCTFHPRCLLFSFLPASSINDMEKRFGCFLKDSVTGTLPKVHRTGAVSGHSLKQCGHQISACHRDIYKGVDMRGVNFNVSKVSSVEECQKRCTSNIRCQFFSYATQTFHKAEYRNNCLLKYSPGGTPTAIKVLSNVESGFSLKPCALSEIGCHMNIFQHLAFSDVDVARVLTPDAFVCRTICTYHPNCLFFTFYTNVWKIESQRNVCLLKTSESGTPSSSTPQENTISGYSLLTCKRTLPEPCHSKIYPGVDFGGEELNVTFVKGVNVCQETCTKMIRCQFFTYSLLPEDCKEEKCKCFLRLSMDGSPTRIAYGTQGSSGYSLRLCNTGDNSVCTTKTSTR

| Molecule | Inhibit as a Fab? |
| --- | --- |
| X66-G08: single point mutation of M142-H08 (P1); HV-CDR3 GGLLLWFYELKSNYFDY (antibody, V domains shown) VL: QDIQMTQSPSSLSAFVGDRVTITCRASQPIDNYLNWYHQKPGKAPKLLIYAASRLQSGVPSRLSGSGFGTDFTLTISSLQPEDFGNYYCQQSYTVPYTFGGGTKVEIR VH: EVQLLESGGGLVQPGGSLRLSCAASGFTFSAYSMIWVRQAPGKGLEWVSYIRPSGGRTTYADSVKGRFTISRDNSKNTLYLQMNSLRAEDTAVYYCARGGLLLWFYELKSNYFDYWGQGTLVTVSSASTKGPSVFPLAPSSKS | No |
| X69-D08: single point mutation of M142-H08 (P1′); HV-CDR3 GGLLLWFRALKSNYFDY (antibody, V domains shown) VL: QDIQMTQSPSSLSAFVGDRVTITCRASQPIDNYLNWYHQKPGKAPKLLIYAASRLQSGVPSRLSGSGFGTDFTLTISSLQPEDFGNYYCQQSYTVPYTFGGGTKVEIR VH: EVQLLESGGGLVQPGGSLRLSCAASGFTFSAYSMIWVRQAPGKGLEWVSYIRPSGGRTTYADSVKGRFTISRDNSKNTLYLQMNSLRAEDTAVYYCARGGLLLWFRALKSNYFDYWGQGTLVTVSSASTKGPSVFPLAPSSKS | No |
| X69-B02: single point mutation of M142-H08 (P1′); HV-CDR3 GGLLLWFRCLKSNYFDY (antibody, V domains shown) VL: QDIQMTQSPSSLSAFVGDRVTITCRASQPIDNYLNWYHQKPGKAPKLLIYAASRLQSGVPSRLSGSGFGTDFTLTISSLQPEDFGNYYCQQSYTVPYTFGGGTKVEIR VH: EVQLLESGGGLVQPGGSLRLSCAASGFTFSAYSMIWVRQAPGKGLEWVSYIRPSGGRTTYADSVKGRFTISRDNSKNTLYLQMNSLRAEDTAVYYCARGGLLLWFRCLKSNYFDYWGQGTLVTVSSASTKGPSVFPLAPSSKS | No |
| X69-D09: single point mutation of M142-H08 (P1′); HV-CDR3 GGLLLWFRGLKSNYFDY (antibody, V domains shown) VL: QDIQMTQSPSSLSAFVGDRVTITCRASQPIDNYLNWYHQKPGKAPKLLIYAASRLQSGVPSRLSGSGFGTDFTLTISSLQPEDFGNYYCQQSYTVPYTFGGGTKVEIR VH: EVQLLESGGGLVQPGGSLRLSCAASGFTFSAYSMIWVRQAPGKGLEWVSYIRPSGGRTTYADSVKGRFTISRDNSKNTLYLQMNSLRAEDTAVYYCARGGLLLWFRGLKSNYFDYWGQGTLVTVSSASTKGPSVFPLAPSSKS | Yes |
| X69-D02: single point mutation of M142-H08 (P1′); HV-CDR3 GGLLLWFRHLKSNYFDY (antibody, V domains shown) VL: QDIQMTQSPSSLSAFVGDRVTITCRASQPIDNYLNWYHQKPGKAPKLLIYAASRLQSGVPSRLSGSGFGTDFTLTISSLQPEDFGNYYCQQSYTVPYTFGGGTKVEIR VH: EVQLLESGGGLVQPGGSLRLSCAASGFTFSAYSMIWVRQAPGKGLEWVSYIRPSGGRTTYADSVKGRFTISRDNSKNTLYLQMNSLRAEDTAVYYCARGGLLLWFRHLKSNYFDYWGQGTLVTVSSASTKGPSVFPLAPSSKS | No |
| X69-A12: single point mutation of M142-H08 (P1′); HV-CDR3 GGLLLWFRKLKSNYFDY (antibody, V domains shown) VL: QDIQMTQSPSSLSAFVGDRVTITCRASQPIDNYLNWYHQKPGKAPKLLIYAASRLQSGVPSRLSGSGFGTDFTLTISSLQPEDFGNYYCQQSYTVPYTFGGGTKVEIR VH: EVQLLESGGGLVQPGGSLRLSCAASGFTFSAYSMIWVRQAPGKGLEWVSYIRPSGGRTTYADSVKGRFTISRDNSKNTLYLQMNSLRAEDTAVYYCARGGLLLWFRKLKSNYFDYWGQGTLVTVSSASTKGPSVFPLAPSSKS | No |
| X69-F05: single point mutation of M142-H08 (P1′); HV-CDR3 GGLLLWFRLLKSNYFDY (antibody, V domains shown) VL: QDIQMTQSPSSLSAFVGDRVTITCRASQPIDNYLNWYHQKPGKAPKLLIYAASRLQSGVPSRLSGSGFGTDFTLTISSLQPEDFGNYYCQQSYTVPYTFGGGTKVEIR VH: EVQLLESGGGLVQPGGSLRLSCAASGFTFSAYSMIWVRQAPGKGLEWVSYIRPSGGRTTYADSVKGRFTISRDNSKNTLYLQMNSLRAEDTAVYYCARGGLLLWFRLLKSNYFDYWGQGTLVTVSSASTKGPSVFPLAPSSKS | Yes |
| X69-B08: single point mutation of M142-H08 (P1′); HV-CDR3 GGLLLWFRNLKSNYFDY (antibody, V domains shown) VL: QDIQMTQSPSSLSAFVGDRVTITCRASQPIDNYLNWYHQKPGKAPKLLIYAASRLQSGVPSRLSGSGFGTDFTLTISSLQPEDFGNYYCQQSYTVPYTFGGGTKVEIR VH: EVQLLESGGGLVQPGGSLRLSCAASGFTFSAYSMIWVRQAPGKGLEWVSYIRPSGGRTTYADSVKGRFTISRDNSKNTLYLQMNSLRAEDTAVYYCARGGLLLWFRNLKSNYFDYWGQGTLVTVSSASTKGPSVFPLAPSSKS | Yes |
| X69-A10: single point mutation of M142-H08 (P1′); HV-CDR3 GGLLLWFRPLKSNYFDY (antibody, V domains shown) VL: QDIQMTQSPSSLSAFVGDRVTITCRASQPIDNYLNWYHQKPGKAPKLLIYAASRLQSGVPSRLSGSGFGTDFTLTISSLQPEDFGNYYCQQSYTVPYTFGGGTKVEIR VH: EVQLLESGGGLVQPGGSLRLSCAASGFTFSAYSMIWVRQAPGKGLEWVSYIRPSGGRTTYADSVKGRFTISRDNSKNTLYLQMNSLRAEDTAVYYCARGGLLLWFRPLKSNYFDYWGQGTLVTVSSASTKGPSVFPLAPSSKS | No |
| X69-A09: single point mutation of M142-H08 (P1′); HV-CDR3 … (antibody, V domains shown) VL: QDIQMTQSPSSLSAFVGDRVTITCRASQPIDNYLNWYHQKPGKAPKLLIYAASRLQSGVPSRLSGSGFGTDFTLTISSLQPEDFGNYYCQQSYTVPYTFGGGTKVEIR VH: EVQLLESGGGLVQPGGSLRLSCAASGFTFSAYSMIWVRQAPGKGLEWVSYIRPSGGRTTYADSVKGRFTISRDNSKNTLYLQMNSLRAEDTAVYYCARGGLLLWFRSLKSNYFDYWGQGTLVTVSSASTKGPSVFPLAPSSKS | Yes |
| X69-E05: single point mutation of M142-H08 (P1′); HV-CDR3 GGLLLWFRRLKSNYFDY (antibody, V domains shown) VL: QDIQMTQSPSSLSAFVGDRVTITCRASQPIDNYLNWYHQKPGKAPKLLIYAASRLQSGVPSRLSGSGFGTDFTLTISSLQPEDFGNYYCQQSYTVPYTFGGGTKVEIR VH: EVQLLESGGGLVQPGGSLRLSCAASGFTFSAYSMIWVRQAPGKGLEWVSYIRPSGGRTTYADSVKGRFTISRDNSKNTLYLQMNSLRAEDTAVYYCARGGLLLWFRRLKSNYFDYWGQGTLVTVSSASTKGPSVFPLAPSSKS | No |
| X69-F09: single point mutation of M142-H08 (P1′); HV-CDR3 GGLLLWFRSLKSNYFDY (antibody, V domains shown) VL: QDIQMTQSPSSLSAFVGDRVTITCRASQPIDNYLNWYHQKPGKAPKLLIYAASRLQSGVPSRLSGSGFGTDFTLTISSLQPEDFGNYYCQQSYTVPYTFGGGTKVEIR VH: EVQLLESGGGLVQPGGSLRLSCAASGFTFSAYSMIWVRQAPSKGLEWVSYIRPSGGRTTYADSVKGRFTISRDNSKNTLYLQMNSLRAEDTAVYYCARGGLLLWFRSLKSNYFDYWGQGTLVTVSSASTKGPSVFPLAPSSKS | Yes |
| X69-F01: single point mutation of M142-H08 (P1′); HV-CDR3 GGLLLWFRTLKSNYFDY (antibody, V domains shown) VL: QDIQMTQSPSSLSAFVGDRVTITCRASQPIDNYLNWYHQKPGKAPKLLIYAASRLQSGVPSRLSGSGFGTDFTLTISSLQPEDFGNYYCQQSYTVPYTFGGGTKVEIR VH: EVQLLESGGGLVQPGGSLRLSCAASGFTFSAYSMIWVRQAPSKGLEWVSYIRPSGGRTTYADSVKGRFTISRDNSKNTLYLQMNSLRAEDTAVYYCARGGLLLWFRTLKSNYFDYWGQGTLVTVSSASTKGPSVFPLAPSSKS | Yes |
| X69-C12: single point mutation of M142-H08 (P1′); HV-CDR3 GGLLLWFRVLKSNYFDY (antibody, V domains shown) VL: QDIQMTQSPSSLSAFVGDRVTITCRASQPIDNYLNWYHQKPGKAPKLLIYAASRLQSGVPSRLSGSGFGTDFTLTISSLQPEDFGNYYCQQSYTVPYTFGGGTKVEIR VH: EVQLLESGGGLVQPGGSLRLSCAASGFTFSAYSMIWVRQAPGKGLEWVSYIRPSGGRTTYADSVKGRFTISRDNSKNTLYLQMNSLRAEDTAVYYCARGGLLLWFRVLKSNYFDYWGQGTLVTVSSASTKGPSVFPLAPSSKS | Yes |
| X69-E01: single point mutation of M142-H08 (P1′); HV-CDR3 GGLLLWFRWLKSNYFDY (antibody, V domains shown) VL: QDIQMTQSPSSLSAFVGDRVTITCRASQPIDNYLNWYHQKPGKAPKLLIYAASRLQSGVPSRLSGSGFGTDFTLTISSLQPEDFGNYYCQQSYTVPYTFGGGTKVEIR VH: EVQLLESGGGLVQPGGSLRLSCAASGFTFSAYSMIWVRQAPGKGLEWVSYIRPSGGRTTYADSVKGRFTISRDNSKNTLYLQMNSLRAEDTAVYYCARGGLLLWFRWLKSNYFDYWGQGTLVTVSSASTKGPSVFPLAPSSKS | Yes |
| X68-E12: single point mutation of M142-H08 (P3); HV-CDR3 GGLLLCFRELKSNYFDY (antibody, V domains shown) VL: QDIQMTQSPSSLSAFVGDRVTITCRASQPIDNYLNWYHQKPGKAPKLLIYAASRLQSGVPSRLSGSGFGTDFTLTISSLQPEDFGNYYCQQSYTVPYTFGGGTKVEIR VH: EVQLLESGGGLVQPGGSLRLSCAASGFTFSAYSMIWVRQAPGKGLEWVSYIRPSGGRTTYADSVKGRFTISRDNSKNTLYLQMNSLRAEDTAVYYCARGGLLLCFRELKSNYFDYWGQGTLVTVSSASTKGPSVFPLAPSSKS | No |
